Measured values: the DeepSol protein solubility set

Assay: soluble on expression in E. coli; label from the status in PepcDB or PDB records

Sequence | soluble on expression in E. coli
MSLARKNTATRQVIHIVGEGLTELFYFSHLKKILGYRYSISPRLFENNSIEKIEKKIKELLDEDVFVICVFDADVSRRSDAENKKMVSFKKKYENNPNVILCDSLQSIEYWFLLHFEDTCRHFQDSAATERALKQYLPTYDKTRKYLEKDKWVKEMLAGSKMDKACELAEKYKGRDSYSEIYKAIKKVSQNEGHHHHHH | soluble
MGSDKIHHHHHHMKVILHIGAHRCATRSFQNYMTRKSDTLSQYGIAFMGPERTRNGLLHGIQPGAISVTGRDPMARARGRIALQLAGLQNAGTASVVISDASMLQPLEQCFALGALYPAAGEHLARLDHAFDGAVSDVMLNIRSPEMFWASALAVRLEHSLRMPNAATLSRIAEATRSWRDVIQDIYCAMPGARIRVFPYEVFATQPEAQLSAVTGVDCPHARGAFRLNASARLPELRAELPPRLAKLLPEDEGRWMPFSEAEAARLRESYYDDMMWLVGGADGLAELVEDPNKADATATPPAPDLVVQEDLTRGRMHDPDTGRLAGTG | not soluble
NHELDWSDIKGQHHAKNAMVIAACGGHSILLSGAPGSGKTMMAKRFSTLLPELSETQALECAAINSIRGKLPDFREWRLPPFRAPHHTASPVALVGGGNPPKPGEISLAHHGVLFLDELPEFNRQVLETLREPLESGHICISRAAAQIEFPAKFQLIAAMNPCPCGQWGNSQANCLCTPDRI | not soluble
MNAKAVKEVLKAHVGRAYAPYSGFPVVALVEAEGEVFLGVNVENASFPLSQCAERNAVAAMVLAGKRRLERVHVYSPKGPIPPCGGCRQVLMEFGGPEVEVVLHGPEEEVRTTLGALLPLAFRL | soluble
MILITLLKDGVGEKMRIVFDLGGSVVMPKEGAKAEKIMEYANIFKKIKDEGHEVAIVVGGGKTAREYIEIGRELGASESFCDELGIMATRMNAMILITALGDYSIKKVPTSFEEAELILNLGKIPVMGGTHPGHTTDAVAASLAEFINADLLVIGTNVDGVYDKDPNKYEDAKKFDKMSAKELVDLAISSSLKAGSSSVVDLLAAKIIERAKLKVAVVKGTPEELLNVSKGIINGTIIEG | soluble
IRDFSYGVKFVLSDSQQKILKYPNEDYNIGTYYKGQKLNNIWGYKTIGIAQSQEEMDAHLAKVDQSALGSKWGAGDIMYADLDGDGKISTGSNKLGDTGDRVILGNSTPRFNYGLTIDASWKGIDFRAFFQGIGKRDYWLQGPYFWGSTGLGQWQAAGFKEHWDFWRPEGDPLGANTNAYYPRVARNGGKNTNVQSRYLQNAAYCRLKNIQIGYTLPKTWTEKAGMSSVRVYVSGDNLLTFSDITGIFDPEAIGSTYDANNGKLYPLQRVISVGLNVNF | not soluble
MVKTMKCKFCDKKSYIKLKSPKMYLCKEHFVEYFENKVKKSIDKYKMLSKDEKILVAVSGGKDGHAAAWVLKKLGYNIELFHINLGIEGFSEESLKAVKELAEKLEVPLHVVNLKDITGKTMEDIRGKKCSICGTTKRYLMNKFGYENGFDVIVTGHNLDDEVSFILNNLFNWNIRYLAKHEPVLPAHDKFLKKVKIFFEIEEELILKYAEAEEIPYTTVECKYAERAITLKHRAYLNELEKERPGIKYQFLSGYMKNRHLFKVEEEDFQFRECEVCGMTSAGKICSFCRVWKLYKKKKENRN | soluble
MGSDKIHHHHHHMSPLKSFLGVIYMNRSERLNQELIFLSYRQEFHIKELMQEFNISKRTALRDVNSLEQLGLSIYVEPGRYGGYQIMQQQLWVPILLNSQEINALFFALKALSLLSATPFEKSYHTIYKKLMATLSLSNQRQVAKLQRVVNYYSIPNLDAPTHLSDLLTAILDENVVQLTMTTVTAGFQIFDLLYRHGIWFFSGVNLDNNAWGIYRCDTIKVFQTSEQPARYTWKQLAQRQRSYDHHHHNIRYKCALTPPGREHVQKNNYPNMHLTHQNDQDYLIGGYNQDELAYMVDYLLGLGRNVRIIYPEALKTAYLQELQQIQDFY | not soluble
MGSDKIHHHHHHMEYGHHARPDSKRPLDEGSPAAAGLTSKKANEALTRNRELTTVLVKNLPKSYNQNKVYKYFKHCGPIIHVDVADSLKKNFRFARIEFARYDGALAAITKTHKVVGQNEIIVSHLTECTLWMTNFPPSYTQRNIRDLLQDINVVALSIRLPSLRFNTSRRFAYIDVTSKEDARYCVEKLNGLKIEGYTLVTKVSNPLEKSKRTDSATLEGREIMIRNLSTELLDENLLRESFEGFGSIEKINIPAGQKEHSFNNCCAFMVFENKDSAERALQMNRSLLGNREISVSLADKKPFLERNEVKRLLASRNSKELETLICLFPLSDKVSPSLICQFLQEEIHINEKDIRKILLVSDFNGAIIIFRDSKFAAKMLMILNGSQFQGKVIRSGTINDMKRYYNNQQNHSMKHVKPSCINMMEKGPNLQVKKKIPDKQEQMSNDDFRKMFLGE | not soluble
MGSDKIHHHHHHMKETVYFGTYTRRTSQGIYKADFDTETGQLSNLELFAAEPSPTYLAFDQHQHLYTVGSQDDKGGIAAYQTDGTVLNHVVEEGAPHCYVAVDEKRDLVYAANYHKGQVLVYKRQEDGSLLLSDMDQHSGQGPHENQASPHVHYTDLTPDHYLVTCDLGTDQVITYDLDQEGKLSKLYTYHSKPGAGSRHIIFHNHYKIAYLICELNSTIEVLIYDGVGEFERMQVISTLPEAYEGFNGTAAIHLSKDGKYLYASNRGHDSIAVYTILADGSLELLEIVPTHGQTPRDFDLTPDQKFLIVVHQDSDNATVFKRNCDNGRLAELSNDFHVPEAVCIRFAP | not soluble
MSKDLVHPSLIRAGIVELEMAEETTDLINRTIESNQAHLQGEPLYVDSLPEDMSRLRIEDKSRRTKTEEEERDEGSSEEDNYLSEGQDPLIPFQNFLDEIGARAVKRLKTGEGFFRVWSALSDDIKGYVSTNIMTSGERDTKSIQIQTEPTASVSSGNESRHDSESMHDPNDKKDHTPDHDVVPDIESSTDKGEIRDIEGEVAHQVAESFSKKYKFPSRSSGIFLWNFEQLKMNLDDIVKAAMNVPGVERIAEKGGKLPLRCILGFVALDSSKRFRLLADNDKVARLIQEDINSYMARLEEAE | soluble
MGHHHHHHSHLKHKMMNYMKDFRMIEDSENPEIVISVGGDGTLLQAFHQYSHMLSKVAFVGVHTGHLGFYADWLPHEVEKLIIEINNSEFQVIEYPLLEIIMRYNDNGYETRYLALNEATMKTENGSTLVVDVNLRGKHFERFRGDGLCVSTPSGSTAYNKALGGALIHPSLEAMQITEIASINNRVFRTVGSPLVLPKHHTCLISPVNHDTIRMTIDHVSIKHKNVNSIQYRVANEKVRFARFRPFPFWKR | not soluble
AISGAKKYFYMQTPYFLPTEQILGAMQTAALAGVDIRLMLPEHADNRVTHLGSCSYLADVLRAGVKVYFYKKGFLHSKLMVSDDMLSTVGSTNLDFRSFEHNFEVNAFMYDMETALQMREIFLQDQRESTQIFLKSWEKRSSRQKAMESVVRLLAPLL | not soluble
QAKPGGKEDSVLYQLMRARVALIYEETPGIAAKRFRAQLVENPKSEPARYGLAIAQIKGGQLNEARESLKPLLEKSPNDITYNLTQIDLDITNNRLADAQQRVDRMLTLYPTSYPLNDVRIDVLLKQNRTAEAEKSLEALLKTRPDDPDIWYVVAETRG | not soluble
MGSDKIHHHHHHMETRNLQRNPILLVHGITDTEAVFDQMAAYLRQMGWTVYTLNLVPNNGEAPLNVLAQQVADYVAANITPEQPFDLVGFSMGGIVSRYYVQRLGGISHVQRFVTISSPHYGTVIAYASQRPGCVQMRPNSLFLQDLNHDVQMLEELNFTSIWTPYDLMIVPTHSSKMPVGKELSIPVALHSWMLRDVRSIEAVAAALAEPINCDRRFEYIPNSSIHN | not soluble
MVEDTKTQMAAAISATLVFAARRRPLFCSLSSSSSSKPNTRKLVLYSKPGCCLCDGLKEKLHAAFTLSTGPDSLNDVTLQVRDITTNPEWERAYQYEIPVLAKENSDGKEEVLPRLSPRLSAELIQKKLLAAFS | not soluble
STNLRAWLYQGDHCLESRQSEAGVTRLNGKSPAAVLAEVTTDWREENTPVVMAGMVGSNVGWKVAPYLSVPARFSSIGEQLTSVGDNIWIIPGLCVSHDDNHNVMRGEETQLIGARALAPSSLYVMPGTHCKWVQADSQQINDFRTVMTGELHHLLLNHSLIGAGLPPQENSADAFAAGLERGLNAPAILPQLFEVRASHVLGTLPREQVSEFLSGLLIGAEVASMRDYVTHQHAITLVAGTSLTARYQQAFQAMGCDVAAVAGDTAFQAGIRSIAHAVAN | not soluble
MTYETVERSKKSQVNLNNKEPFSVLLLGIDTGDDGRVEQGRSDTTIVATVNPRDKQTTLVSLARDTYVDIPGQGKQDKLNHAYAFGGASLAMDTVENYLNIPINHYVSINMAGLKELVNAVGGIEVNNNLTFSQDGYDFTIGKISLDGEQALSYSRMRYEDPNGDYGRQERQRKVIEGIVQKVLSLNSVSNYQEILTAVSDNMKTDLSFDDMKKIALDYRSAFGKVKQDQLQGTGFMQDGVSYQRVDEQELTRVQQELKNQLNTKLEHHHHHH | soluble
MSLKITAVEPFILHLPLTSESISDSTHSITHWGVVGAKITTSDGIEGYGFTGTHAHLPSDRLITSCISDCYAPLLLGEDASDHSRLWTKLARYPSLQWVGRAGITHLALAAVDVALWDIKAKKAGVPLWHYLGGARTAGVEAYNTDIGWLSFTLEDLLAGSARAVEEDGFTRLKIKVGHDDPNIDIARLTAVRERVDSAVRIAIDGNGKWDLPTCQRFCAAAKDLDIYWFEEPLWYDDVTSHARLARNTSIPIALGEQLYTVDAFRSFIDAGAVAYVQPDVTRLGGITEYIQVADLALAHRLPVVPHAGEMSQVHVHLSYWHPASTILEYIPWIKDHFEEPIHVRDGVYKRPEQPGASTTPLAESFTRYGKAVKEGHHHHHH | soluble
MSLGKATGFLEFGRELPKKIDPAERIKNNKEFVLNQEFGKKINQQASRCMDCGVPFCHNGCPIGNIIPEFNDAVYRDSWEEAWNILSSTNNFPEFTGRVCPAPCETACVLGINQDPITICNIEKTIVERAYQEGYAKPKTPRSRTGKTVAIIGSGPAGLAAAEQLNAAGHSVTVFERDEKVGGLLRFGIPDFKLGMDVIDRKINLMEQAGVKFVVNAHIGVDINAQQLRQEFDAVLLTGGSTVPRDLSIPGRDLKGVYFAMQFLAQNNRRANGMDLKGEEIHAKGKHVVVIGGGDTGSDCVGTSNRHGAASITQVEIMPIPPQKRPVNMPWPQYPMILRTSTSHEEGCERHWNILTKEFIGNEQGEVTGLRIADIVWKDAAPGERPSFDEVVGSERVIPCDMAFLAMGFLHPEPHGVLAQLGIKLDERGNVATQDFATNQKGVFAAGDMRTGQSLVVRCINEGRECARAVDTFLMGNTHLEAKADSLMLSAEGHHHHHH | soluble
SDQGLIFTNHHCGYGAIQSQSTVDHDYLRDGFVSRTMGEELPIPGLSVKYLRKIVKVTDKVEGQLKGITDEMERLRKAQEVCQELAKKENADENQLCIVEPFYSNNEYFLIVYDVFKDVRMVFAPPSSVGKFGGDTDNWMWPRHTGDFSVFRVYAGADNRPAEYSKDNKPYKPVYFAAVSMQGYKADDYAMTIGFPGSTDRYLTSWGVEDRIENENNPRIEVRGIKQGIWKEAMSADQATRIKYASKYAQSANYWKNSIGMNRGLARLDVIGRKRAEERAFADWIRKNGKSAVYGDVLSSLEKAYKEGAKANREMTYLSETLFGGTEVVRFAQFANALATNPDAHAGILKSLDDKYKDYLPSLDRKVLPAMLDIVRRRIPADKLPDIFKNVIDKKFKGDTKKYADFVFDKSVVPYSDKFHAMLKSMDKEKFAKAIEKDPAVELSKSVIAAARAIQADAMANAYAIEKGKRLFFAGLREMYPGRALPSDANFTMRMSYGSIKGYEPQDGAWYNYHTTGKGVLEKQDPKSDEFAVQENILDLFRTKNYGRYAENGQLHIAFLSNNDITGGNSGSPVFDKNGRLIGLAFDGNWEAMSGDIEFEPDLQRTISVDIRYVLFMIDKWGQCPRLIQELKLI | not soluble
